This series can be described thus: soluble fraction after stress (log2 fold change); higher = more stays soluble; pooled small domains, quantitative proteomics. Particulars: stress: 50 degC. The procedure, abridged:
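Quantitative proteomics served as the high-throughput read-out for pooled custom libraries of small protein domains. Each was stressed at 50°C. Aggregation propensity is expressed as the base-two log fold change in soluble protein after stress. A higher value means a larger share of the protein remains in solution.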
Take “HMDEALLRATLLDVLVKHHPKIGDKLDVVFALAKAWVSSGSDDDFEVLEKYMERLKPDEALMLASGFSNML”: the “soluble fraction (log2)” value is -0.972.
With “HMDEDTWKLYKRAYKKYYARYMKGNMSEAAFKAWGEQAAADRDAAIEQLRATTDAALSASIIQQLKEKLNR”, the “soluble fraction (log2)” value is -0.581.
The result for “HMDEEDVLNELIRRLALTADDRLLLSLSYEDGLSSRKIATLLETSAATVQRRLAGLHHQLEQALRVMGLA” reads -0.454.
Next, “HMDEEGDALDREYEDQIRLGDEAFDAEDWTSAQRAYTAALELRPDERYPKNRLRRLASLQEDV”: 0.0779; “HMDEETVALQKAIHSLPPKQQAVFNMRYYDEMSFREIADANETTESSAKANYHFAKAKIIEQMKR”: 0.101.
On to “HMDEILHHPSYRAIYEYMLDHKHVKTKDIAALLNVKEPRARQLLKEMIDKHFIIALGSNRNREYELL”, for which the “soluble fraction (log2)” value was -0.495.
The result for “HMDEKSGWLHLAPHEGALRAALYAEHAVQEERTAPDGSQWLRLVLREKHYHQIQSKYNRRLTLHTQPDPS” reads 0.113; that for “HMDENDPYEILEIDRLASDDQVKAKYRALIRENHPDVLMAKGVPQEFIDLANRKMAVINAAYDRIEKEREF”, -0.0184.
For the sequence “HMDEPGAGYKWREDVLLRVMASHGIEESLRDDFVRHAVGFDNDDNMYLKKVEIENAAAAWVAN”, the “soluble fraction (log2)” value was -0.377.
Next, “HMDETELLLQKAIATLPDKQRVVFNLKYFDEMKYEEMSELLETSVGALKASYHLAVKKIEQFFHDA”: -0.643; “HMDETYRRQLEDLAREHGAEYLHGILREVDPASAEAIHANNIKRVIRALEFYHLSGKKISEHNETERQ”: 0.158; “HMDEVHYLADKERGTTWEEILIHADRDIKFLSLSATINNKNEFLEWLVSLRGTTSLIHSSTRPIPLEI”: 0.218.
The result for “HMDEVLDQFVRGQIYGYIRANPGDIYSSIRDNLGLKNGVTTYHLDVLAREEYVYSEIDGTNRRFYPSGWEE” reads -3.2; that for “HMDEVVVVERGGVQITMSEIDAKIMELPVDVRPSYLDSPERLQNFVSNLLLEKQAAQLKSQY”, -0.153.
As for “HMDEWDPAILYVGLDYEDAAQIATRLATSGVPYRLSPDGTMITVPDDQVNNMRLTLAGEGFPH”, the “soluble fraction (log2)” value was -0.0702.
The result for “HMDEYFNPETVVHYLRELFDTYRENGGNPFEWFHSTFESVNLNPQNYRKDLITTIEKALIEWIEIFEKQ” reads -0.0143.
Next, “HMDFDPDVPSREDILQAFRDSKPPLTVNALISEFGLSRDASIVGLERRMGAMQRDGQLEQTPSGWQLSV”: -0.158; “HMDFFVLVGAYKTPDEAETIRAKIAFSGLDSSVSHGNDGRYRVRIGPFHSEGDARKAQSTLRANDIPGQII”: -0.0926; “HMDFGMPEELQKKLDKMPALKAAFEALTPGRQRGYIFYFSQPKQSKTRELRIEKSIEQIMNGKGLND”: -0.115.
For “HMDFIEYIISEESKGLRADQAISMENDKFSRSLIQKWIKKGRVLVNGRKIKPKDIVNLNDKITINPEESIN”, the “soluble fraction (log2)” value is -0.143.
Next, “HMDFITPYEIEQGQYEGAELYEDGKFEEAFSLSSIAAQRGMKTAQYLLGIMFLKGEYVDQSLAIGMAW”: -0.272; “HMDFPYISGIEIAAIKNREFIRIETDKAQEIAIALDKSGIPFSARFSDAEMVLTYDGSYKEQVEDIIAKA”: -0.0417.
On to “HMDFSERLARAMSLAGYTQGRLAKEVGMAQSSVNKLLNGANGSRKTVEIASVLGVRPEWLSTGAGEML”, for which the “soluble fraction (log2)” value was -0.371.
The result for “HMDFSSRLKDERKRLKLSQAQLGEAGGVSKDAQLNYENGSRSPSASYLELIAREGVDVQFLLTGKRS” reads 0.0732.
Next, “HMDFSYTVGDIDEPIDSRGNSVIMLRKLAWGSNAEKLEIRRWIIDIDSERANKGVTFLTEEGPHNLVRV”: 0.128; “HMDFTISDADFHRLVQFIQQNYGVALSKKRQLISSRLSHSLRELGYKDFRTFLEHLFSTRDPADLELVLNK”: -0.989.
Next, “HMDFYVILGVDRAASLSDVKRAYRRLARKHHPDINPGDPESDAFFMRVTEAYETLVDPDRRQEYDEHG”: -1.03; “HMDGEFINLKNRAGTEIEARILNYQNGQVKLERKDGVTFVVSISMFDAKSVIAINHKIAEIIDT”: -1.37; “HMDGIDALEPLMRRVFEALPQRRSMTIERAAVAAGLDEESVKIALVRLQLEGYVANDERGWHRSKSPH”: -0.911.
As to “HMDGIGLRVRMIREGVGLTQKQLAEHLGMQRTALVQVEAGSRKLSASELIGVARFFNITVEQFLDPEK”, the “soluble fraction (log2)” value is -3.37.
On to “HMDGIPVPDVKGTVEAEATATLKNSGFEVTKTQDFSDTVEAGKVISQNPAGGSSAASGSSVTLVISQGPN”, for which the “soluble fraction (log2)” value turned out to be 0.0569.
Regarding “HMDGISANAVKALIESLIAGEDKRKPLSDQAMSDRLALQGIVLARRTVAKYREELNFPPAHQRKQK”, the “soluble fraction (log2)” value was -0.572.
Consider “HMDGLPYPEAAEEPIAQVARNLGMDATRVSIALQEAKLIFRNLDETLAEIAANNGTTPQVVYDAIRHLEPP”, for which the “soluble fraction (log2)” value was -0.095.
As to “HMDGLTEQQADDILAFISIKGTNAEVLAALENYAGRNETFDTGLSELKVVASNLAAFGMPEENFVVDL”, the “soluble fraction (log2)” value turned out to be 0.0102.
The result for “HMDGPGDRLLIAIQENSMTQKKFAQLIGMSPNGLNSIIKGKKRLSRVLAIATERLTGVRADWILQNEQPK” reads 0.0136; that for “HMDGQPLSERQQEILRWVAEGLSNREIGERLNITPNTVRDHLSEVMRRLEVSNRTSAVSTAFHLGLLP”, -0.115.
Next, “HMDGRIRFRHAALHDPDVAARLHDYLTTSLPGVRSARVNSQTGSLLLEYDPEVLDRSTLLDLAARAESLL”: -0.219; “HMDGRSLSHATLEEIRIRAVQRVEAGESPEVVVKALGFSRPRIYEWLALYREGGLEALRAKPV”: -0.505.
The result for “HMDGSEYAGTVRLGDGTLQPVPRFETSNSETPKYLYLVMDVTHDPPVYILEHESAELKSVLGGLVLIGSYS” reads 0.0759.
As to “HMDGTVRGKTTFQELLDWGVPQERIEAVLGGPIPAPGVVIKDYVTAQGKEFSAVRDALQAEVDAVLK”, the “soluble fraction (log2)” value was 0.232.
Next, “HMDGVLLDHLDGFVTTRRGVEAWLEQPTSFNKPSILLVAADGESTRRAIPSIAFGYDFASRHDIPAYDAG”: -0.496; “HMDGVPPAGSRIRLTVSTQVGDKEFEGTLVPPAGVDLLTLKLANGYNLSHSIADVREVVLIEEGLQGEEP”: -0.0515; “HMDGVSLLFKLMETLPEQQKTILHLRDVEQLEFAEIAKITNTSQANVRVALSRARKKIKDLLLKQY”: -2.17.
Next, “HMDGVYLKSLKQTEQHIHWSGYAQSNAWVSTLMRNLDASPWFESPLLIEIKAATINNSRSNEFDLNVRL”: 0.0711; “HMDGYTVYTNWGSDTNVARSDQQIQSQIPQLSGATIVGVWTKPIATGGTSYKIRYRTNSGAFTEIDVDQ”: -0.105.
As to “HMDHKTKLQEVLQKSGDVFIEYRLIKEEGPAHERIFWIEVYVDDQLIGTGQGKSKKLAEQAAAENALAALE”, the “soluble fraction (log2)” value is -0.252.
Next, “HMDIEHREMKLQKLVITADSPLVGKTLKESNVRQRYNFMVVGVEEGQKNLTMINPNRRFEVGDIVWVVGEE”: -0.0892; “HMDIFGREAEVEQILQEVRFGDDPHYRLSIGILPVTGHAGAGKTALVRFIFHHEVARAEFTVRMWVHV”: 0.106.
Next, “HMDIGKNIQTIRYANKLTQDQVIAKLNLMGISMSKSTYAKLETNRMNIKVSELVALAKIFHTDINAF”: -2.43; “HMDIGTYTVTASALNIRQYPTASSAKTGSYPNGSIVTIYEYLTDGSWGRTDDGWISMNYVSRRY”: -2.01.
Turning to “HMDIHSEEYILGQNIRKYRLRLGWSQADLSNAVDIDRADISKYENGAKGIMSSTLLRKFAKALGVSMDALM”, the “soluble fraction (log2)” value is -2.76.
For “HMDILPRMVASEMRAVGVPPERMTREEKGTVIRNLMNAGIHQMKGAVVEIARQLHLSEPTVYRYIKREKG”, the “soluble fraction (log2)” value was -0.327.
Next, “HMDINMELGKNIRRLRKLNNLTQQSLANQMNRSKTLIALWEKGERDPSSIDLKRLSEIFNVRADDIIG”: -0.689; “HMDIRMLLSDREEEIMILLSKGLSISEAANRMQIGQASAATYLNRARRKLKAETVRQAVAIWTGD”: -1.75.
Take “HMDISAFDTEFIISKFGGIRPMAQKLGVPVSTVQGWKQRQTIPQNRMGDILEAAKNYNLELTP”: the “soluble fraction (log2)” value worked out at 0.0856.
As for “HMDISPAAKQRLALIQPLLEKNAEAITDRKLRNAVAKDIANNQNTTVRRVLRLYYRYLATGQVM”, the “soluble fraction (log2)” value stood at 0.0392.
In the case of “HMDIVIPIQVKNVSSGEVLDFPSIRAAARDLKFPKTTISLGVRYAGEKAYKGFVMRYRSDDPWPIVQES”, the “soluble fraction (log2)” value was -1.93.
As to “HMDIYLDEVNRKILHLLSQGIKTRSLREYINLSMSAIEKRKKHMKELFLVEDGKDETLLNEARNKGF”, the “soluble fraction (log2)” value was -1.43.
With “HMDIYLTAFKTTSNQVTLNGIARSDLIISEFMRDIRDAKLFGEPVLQVIQNKNLNNVQARVFELVVPL”, the “soluble fraction (log2)” value is -0.263.
“HMDKATMRWEQIEKFLETHPYIMNADVRALFNVSAATANRILATLTTEGKLVKYREGGHWAYKY”: the “soluble fraction (log2)” value was -0.544.
For the sequence “HMDKELILLWDRVKSKVWQMDIQDSQVANWFQRNYHLTVRLRDFDPPVPPDKFTAEQLASFIKDIERHT”, the “soluble fraction (log2)” value was -0.597.
Next, “HMDKGMQTMIDNLHKNTGKTLEEWIALVNRANFAKHGEVISFLKEKHGLTHGYANLVAHRLK”: 0.113; “HMDKINQEAIEDEAGLWLAKIDGRQLAQEEVRELIAWMRRSDFHREYLITLARQWDGMAALNKLATLFP”: -0.976.
The result for “HMDKLFNRQTLGGVELTQKQIEDLNAGKAIFVEGMQRKDGEVFSSYVKLDEATGRPSYTRYNPDSP” reads 0.441; that for “HMDKLSYALGLSMGHNFLGSGIKSLNVEDFAKGVEAVYKQEKPEISFDEAKKIINEFFSNLQDEIAE”, -0.628; that for “HMDKNLQYADTPKGKLREYIKNLPNGSTVNRQKLAEEFGIKKQSMGTVTEVFQEFPDKNFKFVNP”, 0.119.
Take “HMDKPVIEDVSFDDLAYMVGERVIIRTHLRSTRDGELKSFNRAGILVSLRNRPGMELEIPRSTVASAQVVW”: the “soluble fraction (log2)” value is -2.45.
For the sequence “HMDKQEKIHKKKIIILEALKRLLQNDVYSRITVQAVADEAGFSKGGLLHYFPTKEEMYIEFMEY”, the “soluble fraction (log2)” value was -0.0218.

The record behind these values is the domain aggregation screens of Martell et al. (2025).
